The supplement of paper PMC10065799, “High-throughput profiling of sequence recognition by tyrosine kinases and SH2 domains using bacterial peptide display” (eLife, 2023)

Legend:
c-Src SH2 = assay: SH2 binding enrichment of the phosphorylated peptide, bacterial display (enrichment ratio); higher = better substrate or ligand; peptides without Tyr show the background
Grb2 SH2 = Grb2 SH2 (UniProt P62993); assay: as above
SHP2-C SH2 = assay: as above
MERTK = MERTK (UniProt Q12866); assay: phosphorylation enrichment, bacterial display (enrichment ratio); higher = better substrate or ligand; peptides without Tyr show the background
Fyn = Fyn (UniProt P06241); assay: as above
FGFR1 = FGFR1 (UniProt P11362); assay: as above
Hck = Hck (UniProt P08631); assay: as above
Jak2 = Jak2 (UniProt O60674); assay: as above
EPHB1 = EPHB1 (UniProt P54762); assay: as above
AncSZ = assay: as above
c-Abl (mouse) = assay: as above
Fes = Fes (UniProt P07332); assay: as above
Fer (mouse) = assay: as above
EPHB2 = EPHB2 (UniProt P29323); assay: as above
FGFR3 = FGFR3 (UniProt P22607); assay: as above
c-Src = assay: as above
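For SH2 binding enrichment of the phosphorylated peptide, bacterial display in this document: peptide library displayed on the E. coli surface as eCPX fusions, selected cells deep-sequenced, score is each peptide's frequency after selection divided by its frequency in the input.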
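For phosphorylation enrichment, bacterial display in this document: 11-residue human phosphosite peptides and single-mutation variants displayed on the E. coli surface, counted by deep sequencing, each peptide's frequency after selection divided by its frequency in the unselected input library; frequency after pTyr selection over input frequency; kinase dosed for 20-30% of maximal phosphorylation in three min.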

Sequence of FGFR1 (P11362 whole entry, looked up): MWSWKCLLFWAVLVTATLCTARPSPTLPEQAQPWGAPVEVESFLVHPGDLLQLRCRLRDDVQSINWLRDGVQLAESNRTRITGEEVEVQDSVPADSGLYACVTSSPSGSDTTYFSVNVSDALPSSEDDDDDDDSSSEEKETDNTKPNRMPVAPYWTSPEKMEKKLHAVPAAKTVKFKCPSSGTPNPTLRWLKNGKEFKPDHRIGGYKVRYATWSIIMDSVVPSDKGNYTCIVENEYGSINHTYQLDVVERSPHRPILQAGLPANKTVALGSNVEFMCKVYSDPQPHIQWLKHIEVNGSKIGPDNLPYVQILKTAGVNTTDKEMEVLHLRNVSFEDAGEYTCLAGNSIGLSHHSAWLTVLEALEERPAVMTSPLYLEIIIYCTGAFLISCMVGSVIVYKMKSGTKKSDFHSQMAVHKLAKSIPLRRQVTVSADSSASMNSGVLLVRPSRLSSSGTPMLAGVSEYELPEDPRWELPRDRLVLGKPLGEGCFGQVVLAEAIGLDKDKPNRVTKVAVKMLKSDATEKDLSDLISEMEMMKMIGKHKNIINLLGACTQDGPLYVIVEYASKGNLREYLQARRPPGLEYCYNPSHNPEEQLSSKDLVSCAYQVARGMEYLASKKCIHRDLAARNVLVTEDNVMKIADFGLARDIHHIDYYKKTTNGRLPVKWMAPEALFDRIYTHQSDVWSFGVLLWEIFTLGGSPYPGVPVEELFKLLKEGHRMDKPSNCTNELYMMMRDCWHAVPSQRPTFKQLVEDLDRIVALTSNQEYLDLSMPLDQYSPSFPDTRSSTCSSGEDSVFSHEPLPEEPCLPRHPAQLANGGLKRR
Sequence of EPHB2 (P29323 whole entry, looked up): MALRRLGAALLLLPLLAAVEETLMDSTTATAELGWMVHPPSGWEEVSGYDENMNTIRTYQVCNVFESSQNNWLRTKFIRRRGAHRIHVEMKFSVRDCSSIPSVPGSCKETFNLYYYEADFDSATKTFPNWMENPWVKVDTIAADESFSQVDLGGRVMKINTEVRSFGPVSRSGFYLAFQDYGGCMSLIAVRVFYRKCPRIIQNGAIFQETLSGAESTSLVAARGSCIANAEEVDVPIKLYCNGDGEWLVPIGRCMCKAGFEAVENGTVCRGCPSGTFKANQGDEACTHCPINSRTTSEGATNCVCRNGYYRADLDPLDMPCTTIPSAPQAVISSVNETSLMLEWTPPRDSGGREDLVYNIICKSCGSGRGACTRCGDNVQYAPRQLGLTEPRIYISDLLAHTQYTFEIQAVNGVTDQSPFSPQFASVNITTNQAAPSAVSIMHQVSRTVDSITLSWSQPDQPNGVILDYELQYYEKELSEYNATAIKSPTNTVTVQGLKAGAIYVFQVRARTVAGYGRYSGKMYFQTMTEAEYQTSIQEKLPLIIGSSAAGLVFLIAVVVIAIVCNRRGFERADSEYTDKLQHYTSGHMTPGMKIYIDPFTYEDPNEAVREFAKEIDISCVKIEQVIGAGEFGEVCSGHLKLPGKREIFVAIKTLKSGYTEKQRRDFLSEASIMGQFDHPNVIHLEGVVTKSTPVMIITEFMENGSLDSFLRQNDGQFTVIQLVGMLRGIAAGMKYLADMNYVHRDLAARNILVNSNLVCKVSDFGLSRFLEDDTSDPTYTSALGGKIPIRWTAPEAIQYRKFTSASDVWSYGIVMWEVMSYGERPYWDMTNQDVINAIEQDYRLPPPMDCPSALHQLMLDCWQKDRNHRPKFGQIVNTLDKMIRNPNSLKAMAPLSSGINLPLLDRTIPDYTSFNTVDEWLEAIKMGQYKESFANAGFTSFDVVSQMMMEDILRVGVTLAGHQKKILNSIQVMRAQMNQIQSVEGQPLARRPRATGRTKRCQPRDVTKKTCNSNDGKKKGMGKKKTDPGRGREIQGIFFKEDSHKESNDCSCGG
Sequence of Fyn (P06241 whole entry, looked up): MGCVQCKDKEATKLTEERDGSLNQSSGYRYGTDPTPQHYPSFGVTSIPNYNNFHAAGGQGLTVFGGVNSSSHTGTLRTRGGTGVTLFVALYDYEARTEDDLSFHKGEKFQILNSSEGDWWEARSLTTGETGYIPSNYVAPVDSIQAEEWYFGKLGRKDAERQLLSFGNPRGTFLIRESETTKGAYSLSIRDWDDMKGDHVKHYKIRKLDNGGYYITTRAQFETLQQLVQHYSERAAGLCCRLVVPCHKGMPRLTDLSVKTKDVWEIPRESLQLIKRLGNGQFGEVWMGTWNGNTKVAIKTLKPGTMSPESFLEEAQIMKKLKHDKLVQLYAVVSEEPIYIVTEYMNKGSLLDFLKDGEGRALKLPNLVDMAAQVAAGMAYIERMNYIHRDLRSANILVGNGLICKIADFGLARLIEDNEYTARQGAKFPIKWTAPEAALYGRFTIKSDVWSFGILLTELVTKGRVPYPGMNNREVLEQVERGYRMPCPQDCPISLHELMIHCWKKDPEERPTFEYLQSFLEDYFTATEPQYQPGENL
Sequence of Jak2 (O60674 whole entry, looked up): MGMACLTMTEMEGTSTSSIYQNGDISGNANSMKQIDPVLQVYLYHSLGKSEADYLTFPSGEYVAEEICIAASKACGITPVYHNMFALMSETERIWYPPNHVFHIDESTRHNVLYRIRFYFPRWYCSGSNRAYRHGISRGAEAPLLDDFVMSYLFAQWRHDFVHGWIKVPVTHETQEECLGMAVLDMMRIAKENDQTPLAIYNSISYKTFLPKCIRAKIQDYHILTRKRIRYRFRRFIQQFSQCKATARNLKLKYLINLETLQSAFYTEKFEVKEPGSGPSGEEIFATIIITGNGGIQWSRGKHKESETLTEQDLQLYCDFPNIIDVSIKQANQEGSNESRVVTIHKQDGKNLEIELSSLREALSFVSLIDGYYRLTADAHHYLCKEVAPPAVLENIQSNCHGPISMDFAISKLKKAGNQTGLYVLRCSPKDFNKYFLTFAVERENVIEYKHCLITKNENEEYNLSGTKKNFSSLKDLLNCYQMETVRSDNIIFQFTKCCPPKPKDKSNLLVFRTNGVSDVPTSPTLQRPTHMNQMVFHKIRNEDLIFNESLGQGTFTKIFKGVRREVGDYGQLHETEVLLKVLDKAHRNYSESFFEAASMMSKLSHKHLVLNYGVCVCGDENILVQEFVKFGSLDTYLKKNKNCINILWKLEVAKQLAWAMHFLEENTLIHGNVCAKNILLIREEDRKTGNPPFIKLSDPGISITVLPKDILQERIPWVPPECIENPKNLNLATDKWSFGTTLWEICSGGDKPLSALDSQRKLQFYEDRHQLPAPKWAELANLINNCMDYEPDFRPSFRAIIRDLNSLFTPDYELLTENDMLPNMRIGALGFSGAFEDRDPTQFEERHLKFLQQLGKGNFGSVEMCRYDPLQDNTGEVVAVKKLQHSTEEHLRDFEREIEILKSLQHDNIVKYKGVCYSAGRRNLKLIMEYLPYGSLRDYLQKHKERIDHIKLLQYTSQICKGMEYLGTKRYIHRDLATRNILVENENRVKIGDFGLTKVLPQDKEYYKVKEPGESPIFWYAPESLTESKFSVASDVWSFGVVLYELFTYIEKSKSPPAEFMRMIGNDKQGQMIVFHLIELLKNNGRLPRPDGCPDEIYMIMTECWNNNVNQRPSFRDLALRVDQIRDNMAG
Sequence of Fes (P07332 whole entry, looked up): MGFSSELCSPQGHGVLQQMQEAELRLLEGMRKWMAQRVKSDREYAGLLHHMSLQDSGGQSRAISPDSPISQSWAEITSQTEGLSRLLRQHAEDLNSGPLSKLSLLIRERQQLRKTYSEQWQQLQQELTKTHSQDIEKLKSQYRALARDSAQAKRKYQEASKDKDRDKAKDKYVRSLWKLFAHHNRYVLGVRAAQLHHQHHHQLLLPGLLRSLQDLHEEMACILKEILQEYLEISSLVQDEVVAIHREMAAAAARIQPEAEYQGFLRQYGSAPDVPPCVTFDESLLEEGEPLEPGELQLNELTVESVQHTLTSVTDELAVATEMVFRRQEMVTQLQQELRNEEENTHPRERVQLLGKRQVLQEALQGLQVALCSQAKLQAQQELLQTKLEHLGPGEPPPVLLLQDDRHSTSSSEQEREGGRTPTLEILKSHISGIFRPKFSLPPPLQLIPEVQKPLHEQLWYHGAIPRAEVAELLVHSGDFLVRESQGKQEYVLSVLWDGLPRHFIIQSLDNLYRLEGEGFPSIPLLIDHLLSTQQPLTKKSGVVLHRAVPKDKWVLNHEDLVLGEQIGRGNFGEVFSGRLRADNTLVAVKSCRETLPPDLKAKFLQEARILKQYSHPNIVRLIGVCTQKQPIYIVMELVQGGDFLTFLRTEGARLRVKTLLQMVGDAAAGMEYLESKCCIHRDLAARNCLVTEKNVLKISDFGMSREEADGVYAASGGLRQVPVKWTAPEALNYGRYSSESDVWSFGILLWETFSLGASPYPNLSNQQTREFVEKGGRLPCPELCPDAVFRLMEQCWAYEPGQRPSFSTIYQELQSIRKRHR
Sequence of Hck (P08631 whole entry, looked up): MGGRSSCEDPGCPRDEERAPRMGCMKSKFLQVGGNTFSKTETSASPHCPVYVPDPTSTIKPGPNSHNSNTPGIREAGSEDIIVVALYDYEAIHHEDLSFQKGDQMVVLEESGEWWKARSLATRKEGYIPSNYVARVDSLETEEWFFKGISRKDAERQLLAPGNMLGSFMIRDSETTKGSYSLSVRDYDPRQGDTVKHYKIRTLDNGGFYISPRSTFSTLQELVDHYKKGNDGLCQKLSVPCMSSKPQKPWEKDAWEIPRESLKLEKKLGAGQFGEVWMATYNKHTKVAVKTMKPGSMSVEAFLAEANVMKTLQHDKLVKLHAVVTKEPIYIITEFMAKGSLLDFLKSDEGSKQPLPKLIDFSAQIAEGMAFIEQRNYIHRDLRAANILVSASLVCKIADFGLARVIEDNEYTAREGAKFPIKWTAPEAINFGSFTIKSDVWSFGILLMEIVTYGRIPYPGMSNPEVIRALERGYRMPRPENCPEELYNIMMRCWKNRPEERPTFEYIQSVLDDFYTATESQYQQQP

Sequence | SH2 binding enrichment (c-Src SH2) | SH2 binding enrichment (Grb2 SH2) | SH2 binding enrichment (SHP2-C SH2) | phosphorylation enrichment (MERTK) | phosphorylation enrichment (Fyn) | phosphorylation enrichment (FGFR1) | phosphorylation enrichment (Hck) | phosphorylation enrichment (Jak2) | phosphorylation enrichment (EPHB1) | phosphorylation enrichment (AncSZ) | phosphorylation enrichment (c-Abl (mouse)) | phosphorylation enrichment (Fes) | phosphorylation enrichment (Fer (mouse)) | phosphorylation enrichment (EPHB2) | phosphorylation enrichment (FGFR3) | phosphorylation enrichment (c-Src)
SGEKPYKCSVC [ZNF543_Y283_E287V] | 0.532 | 1.02 | 0.712 | 0.416 | 0.373 | 0.342 | 0.255 | 0.434 | 0.261 | 0.495 | 0.493 | 0.524 | 0.398 | 0.298 | 0.355 | 0.365
FSTDCYRVGGH [NTRK2_Y707_Y706C_YF] | 0.636 | 0.827 | 0.745 | 0.652 | 0.545 | 0.599 | 0.646 | 1.05 | 0.592 | 1.08 | 0.934 | 1.12 | 0.452 | 0.576 | 0.638 | 0.608
GKTQQYECKWF [BCR_Y751_D752E_YF] | 0.488 | 0.694 | 0.529 | 0.467 | 0.509 | 0.545 | 0.569 | 0.793 | 0.509 | 0.818 | 0.614 | 1.06 | 0.572 | 0.603 | 0.627 | 0.472
RVQQIYSDSDL [MIB1_Y376] | 0.541 | 0.842 | 0.962 | 4.58 | 4.75 | 0.574 | 3.68 | 0.902 | 1.45 | 1.32 | 1.31 | 1.32 | 3.92 | 0.837 | 0.852 | 5.32
RPYSPYIIRGM [LRP5_Y1531_R1529S] | 1.08 | 1.16 | 0.953 | 0.438 | 0.848 | 0.399 | 0.642 | 0.508 | 0.59 | 0.886 | 0.681 | 0.816 | 1.75 | 0.575 | 0.509 | 1.07
SVVLPYEPPEV [TP53_Y220_V218L] | 0.963 | 0.791 | 0.861 | 0.47 | 0.456 | 0.538 | 0.518 | 0.98 | 0.686 | 1.47 | 0.945 | 1.12 | 0.746 | 0.797 | 0.704 | 0.592
YIRKDYEACKA [BBS4_Y48] | 0.796 | 0.982 | 1.11 | 0.398 | 0.445 | 0.466 | 0.404 | 0.407 | 0.469 | 0.553 | 0.374 | 0.464 | 0.403 | 0.398 | 0.38 | 0.386
ELPEKYSQNIC [PKP2_Y626_Y631C] | 0.493 | 0.997 | 0.703 | 0.544 | 0.497 | 0.518 | 0.533 | 1.18 | 0.538 | 1.01 | 0.956 | 1.12 | 0.446 | 0.605 | 0.599 | 0.579
PNLILYGDFRQ [MYH7_Y715_R712L] | 0.482 | 0.944 | 0.823 | 0.465 | 5.16 | 0.552 | 2.87 | 0.75 | 0.688 | 1.09 | 0.766 | 1.28 | 0.72 | 0.602 | 0.762 | 2.98
KPRKPYTIKKP [BRD2_Y715] | 1.9 | 1.85 | 1.73 | 0.644 | 0.608 | 0.864 | 0.924 | 2.95 | 1.03 | 1.28 | 1.98 | 1.94 | 1.19 | 0.765 | 2.2 | 0.75
AKIDGYIISYR | 0.685 | 0.961 | 1.03 | 0.46 | 0.37 | 0.607 | 0.604 | 0.966 | 0.678 | 1.15 | 0.755 | 1.39 | 0.566 | 0.657 | 0.684 | 0.568
RGRSTYYWPRP [GAGE12J_Y9] | 0.501 | 0.8 | 0.55 | 0.98 | 0.68 | 0.742 | 0.762 | 0.715 | 0.656 | 0.869 | 0.859 | 0.546 | 0.607 | 0.707 | 0.869 | 0.494
SLDHPFEKPRK [INAVA_Y333_Y333F] | 0.508 | 1.01 | 0.813 | 0.365 | 0.721 | 0.388 | 0.376 | 0.663 | 0.317 | 0.589 | 0.61 | 0.749 | 0.3 | 0.433 | 0.524 | 0.436
HGEAYYSEVKP [PAK5_Y182] | 2.44 | 0.769 | 0.795 | 11.2 | 1.96 | 3.13 | 3.85 | 1.7 | 2.27 | 2.68 | 1.79 | 1.62 | 11.2 | 1.8 | 1.93 | 2.99
RHSGSYFVTSV [APC_Y2838_L2839F] | 0.547 | 0.787 | 0.499 | 0.676 | 0.598 | 0.574 | 0.591 | 0.89 | 0.517 | 0.895 | 0.741 | 0.845 | 0.444 | 0.654 | 0.565 | 0.785
NWGSPYKSNGC [ZNF347_Y261] | 0.586 | 0.819 | 0.725 | 0.41 | 0.373 | 0.48 | 0.52 | 0.759 | 0.459 | 0.894 | 0.667 | 1.09 | 0.48 | 0.569 | 0.546 | 0.52
DRLPSYLDKVR [KRT12_Y139_A137P] | 0.671 | 0.94 | 0.756 | 0.656 | 0.454 | 0.408 | 0.794 | 0.616 | 0.371 | 0.62 | 0.494 | 0.665 | 0.436 | 0.331 | 0.485 | 0.479

Sequence | SH2 binding enrichment (c-Src SH2) | SH2 binding enrichment (Grb2 SH2) | SH2 binding enrichment (SHP2-C SH2) | phosphorylation enrichment (MERTK) | phosphorylation enrichment (Fyn) | phosphorylation enrichment (FGFR1) | phosphorylation enrichment (Hck) | phosphorylation enrichment (Jak2) | phosphorylation enrichment (EPHB1) | phosphorylation enrichment (AncSZ) | phosphorylation enrichment (c-Abl (mouse)) | phosphorylation enrichment (Fes) | phosphorylation enrichment (Fer (mouse)) | phosphorylation enrichment (EPHB2) | phosphorylation enrichment (FGFR3) | phosphorylation enrichment (c-Src)
AKAEICEMRPL [COX10_Y97_Y97C] | 0.679 | 1.01 | 0.798 | 0.437 | 0.389 | 0.593 | 0.608 | 0.716 | 0.469 | 0.709 | 0.738 | 0.921 | 0.602 | 0.516 | 0.477 | 0.533
HHIDYYKETTN [FGFR1_Y654_K656E] | 1.47 | 0.985 | 0.996 | 0.866 | 0.646 | 1.09 | 0.799 | 0.979 | 1.03 | 1.13 | 0.878 | 1.39 | 0.893 | 0.814 | 0.935 | 0.997
LVSCTYQLARG [FGFR2_Y608] | 0.515 | 0.894 | 0.7 | 0.443 | 0.579 | 0.452 | 0.483 | 0.983 | 0.536 | 1.23 | 0.91 | 1.08 | 0.605 | 0.62 | 0.698 | 0.783
KDHPDYKYQAR [SOX10_Y171_P175A] | 0.476 | 0.895 | 0.738 | 0.39 | 0.434 | 0.416 | 0.496 | 0.58 | 0.427 | 0.606 | 0.609 | 0.696 | 0.448 | 0.416 | 0.563 | 0.415
IALNSYHSRNC [IFNGR1_Y397] | 0.534 | 0.917 | 0.814 | 0.469 | 0.417 | 0.464 | 0.469 | 0.521 | 0.383 | 0.584 | 0.599 | 0.715 | 0.347 | 0.492 | 0.525 | 0.4
PKKKQYTSIHH [APP_Y728_L723P] | 0.936 | 1.01 | 0.946 | 0.656 | 0.757 | 0.71 | 0.755 | 0.85 | 0.441 | 0.646 | 0.617 | 0.849 | 0.595 | 0.646 | 0.928 | 0.457
FTRNYYVRAVL [CYBA_Y88] | 0.53 | 0.885 | 0.78 | 0.506 | 0.511 | 0.629 | 0.566 | 1.06 | 0.622 | 1.19 | 0.976 | 1.11 | 0.526 | 0.609 | 0.685 | 0.468
GHLYAYDWISI [BEST1_Y227] | 1.76 | 1.56 | 1.31 | 9.38 | 2.24 | 8.88 | 2.99 | 0.923 | 6.51 | 1.98 | 0.848 | 3.56 | 15 | 5.04 | 6.48 | 2.38
SLQFEYVHFGG [CDC14A_Y591_S589F_YF] | 0.643 | 1.08 | 0.925 | 0.426 | 0.548 | 1.47 | 0.557 | 1.12 | 0.612 | 1.25 | 0.781 | 1.29 | 0.367 | 0.682 | 1.33 | 0.604
RLLRGHDQFAF [HLA-B_Y137_YF] | 0.748 | 1.06 | 0.724 | 0.34 | 0.289 | 0.309 | 0.405 | 1.07 | 0.327 | 0.388 | 0.716 | 0.554 | 0.316 | 0.32 | 0.472 | 0.505
RFLRGYHQDAY [HLA-A_Y137_R138H] | 0.632 | 0.857 | 0.497 | 0.795 | 0.762 | 0.572 | 0.538 | 1.28 | 0.84 | 0.963 | 0.984 | 0.772 | 0.923 | 1.03 | 0.895 | 0.935
ENKGVYVPMSG [IVD_Y277_L279P] | 3.41 | 0.734 | 0.445 | 0.451 | 0.367 | 0.48 | 0.519 | 0.517 | 0.411 | 0.599 | 0.503 | 0.559 | 0.405 | 0.383 | 0.531 | 0.449
IHHIDYYKKTT [FGFR1_Y653] | 0.567 | 0.793 | 1.22 | 0.508 | 0.381 | 0.473 | 0.425 | 0.534 | 0.408 | 0.783 | 0.524 | 0.741 | 0.961 | 0.544 | 0.484 | 0.487
PLYGEYFTLQI [TP53_Y327_D324Y] | 0.444 | 0.816 | 0.809 | 9.96 | 16.3 | 17.6 | 11.6 | 15.3 | 15.8 | 4.94 | 9.14 | 2.44 | 3.72 | 18.6 | 14.9 | 12.6
MARDIYQASYY [LTK_Y672_R673Q] | 0.919 | 1.12 | 1.03 | 5.18 | 5.45 | 1.41 | 6.75 | 0.78 | 2.55 | 1.04 | 3.09 | 0.879 | 1.97 | 3.03 | 1.19 | 6.26
TSIGNYYKPWF [DHCR24_Y299_N294T] | 1.27 | 0.844 | 2.71 | 10.1 | 0.59 | 5.29 | 1.03 | 11.5 | 16.3 | 1 | 14.6 | 0.868 | 0.438 | 15.7 | 4.18 | 0.707
